From article PMC3853347

Assays:
[1] = target: Flag-TDRD3 CTD-deletion mutant; test: co-IP
[2] = target: Flag-TDRD3 Tudor-deletion mutant (UniProt Q9H7E2); test: co-IP
Sequence of Flag-TDRD3 Tudor-deletion mutant (Q9H7E2 whole entry, stated change not applied): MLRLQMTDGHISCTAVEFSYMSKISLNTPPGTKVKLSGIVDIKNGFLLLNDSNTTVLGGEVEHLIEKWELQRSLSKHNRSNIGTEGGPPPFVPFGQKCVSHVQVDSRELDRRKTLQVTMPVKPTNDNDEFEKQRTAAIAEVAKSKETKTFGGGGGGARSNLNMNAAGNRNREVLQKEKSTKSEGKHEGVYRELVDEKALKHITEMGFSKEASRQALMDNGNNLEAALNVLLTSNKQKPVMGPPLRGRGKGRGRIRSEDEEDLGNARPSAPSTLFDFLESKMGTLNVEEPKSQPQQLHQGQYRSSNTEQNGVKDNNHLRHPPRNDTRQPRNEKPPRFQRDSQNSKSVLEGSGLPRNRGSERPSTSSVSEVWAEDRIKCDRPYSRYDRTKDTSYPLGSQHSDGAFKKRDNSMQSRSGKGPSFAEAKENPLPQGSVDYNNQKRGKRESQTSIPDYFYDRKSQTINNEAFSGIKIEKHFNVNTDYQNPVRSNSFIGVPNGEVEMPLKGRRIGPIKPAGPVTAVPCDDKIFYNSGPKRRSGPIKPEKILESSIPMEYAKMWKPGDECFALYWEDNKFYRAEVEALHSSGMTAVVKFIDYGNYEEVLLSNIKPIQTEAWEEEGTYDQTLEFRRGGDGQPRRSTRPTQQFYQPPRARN

Sequence of Flag-TDRD3 CTD-deletion mutant (Q9H7E2 whole entry, stated change not applied): as above
Sequence of FXR2, endogenous human (P51116 whole entry): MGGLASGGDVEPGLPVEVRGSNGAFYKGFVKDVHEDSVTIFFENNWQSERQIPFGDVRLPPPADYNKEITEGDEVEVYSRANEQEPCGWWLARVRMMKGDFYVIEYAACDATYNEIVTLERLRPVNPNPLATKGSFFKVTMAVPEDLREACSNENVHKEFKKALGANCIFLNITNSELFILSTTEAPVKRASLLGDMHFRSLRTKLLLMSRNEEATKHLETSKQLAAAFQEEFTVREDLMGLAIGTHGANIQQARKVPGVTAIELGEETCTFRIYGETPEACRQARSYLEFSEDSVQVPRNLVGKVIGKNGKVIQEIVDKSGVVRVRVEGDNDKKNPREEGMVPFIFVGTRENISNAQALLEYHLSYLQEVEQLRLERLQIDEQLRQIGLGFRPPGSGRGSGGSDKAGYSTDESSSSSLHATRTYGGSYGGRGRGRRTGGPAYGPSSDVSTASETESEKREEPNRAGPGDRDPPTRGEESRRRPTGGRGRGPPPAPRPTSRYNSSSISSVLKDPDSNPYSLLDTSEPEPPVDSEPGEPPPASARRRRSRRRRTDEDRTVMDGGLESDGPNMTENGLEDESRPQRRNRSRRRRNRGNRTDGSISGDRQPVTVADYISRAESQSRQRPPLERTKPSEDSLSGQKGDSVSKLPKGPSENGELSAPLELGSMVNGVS
Sequence of FXR1, endogenous human (P51114 whole entry): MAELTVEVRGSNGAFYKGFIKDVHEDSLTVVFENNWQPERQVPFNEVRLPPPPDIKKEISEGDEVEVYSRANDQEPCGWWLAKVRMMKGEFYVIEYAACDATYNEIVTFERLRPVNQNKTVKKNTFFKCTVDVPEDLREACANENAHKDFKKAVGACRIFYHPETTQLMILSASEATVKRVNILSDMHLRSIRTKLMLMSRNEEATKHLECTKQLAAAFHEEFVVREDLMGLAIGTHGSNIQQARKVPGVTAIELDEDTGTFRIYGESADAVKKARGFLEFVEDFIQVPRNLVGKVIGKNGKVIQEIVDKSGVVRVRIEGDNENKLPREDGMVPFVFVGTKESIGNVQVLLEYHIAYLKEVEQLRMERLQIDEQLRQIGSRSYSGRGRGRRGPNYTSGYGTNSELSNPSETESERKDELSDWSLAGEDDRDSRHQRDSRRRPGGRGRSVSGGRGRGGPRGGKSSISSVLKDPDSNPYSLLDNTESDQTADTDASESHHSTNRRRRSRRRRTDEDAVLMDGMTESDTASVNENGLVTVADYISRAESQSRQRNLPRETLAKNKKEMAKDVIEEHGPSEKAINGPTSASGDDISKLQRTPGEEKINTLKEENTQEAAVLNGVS

Substance | reduction of the co-immunoprecipitated amount against wild-type TDRD3 [1] [%] | reduction of the co-immunoprecipitated amount against wild-type TDRD3 [2] [%]
FMRP, endogenous human (from UniProt Q06787 1-632) (natural protein) | 80 | 30
FXR2, endogenous human (from UniProt P51116 1-673) (natural protein) | 80 | 30
FXR1, endogenous human (from UniProt P51114 1-621) (natural protein) | 80 | 30
